Here are results for one molecule from patent US7378098.

This assay addresses T1, CXC chemokine receptor 4 (CXCR4) (UniProt P61073 1-352, limits assumed).
T1 construct: whole, on cells; Both are human cell lines; also called CXCR4 receptor; SDF-1 receptor
The assay is described as follows: competition with 4 nM 125I-SDF-1 on CEM cells (FIG. 2C). As for the experimental part:
The results are expressed as percentages of the maximal specific binding that was determined without competing ligand, and are the mean of three independent experiments.

Where no end group is shown, it is not given here.

T1 sequence (P61073 whole entry): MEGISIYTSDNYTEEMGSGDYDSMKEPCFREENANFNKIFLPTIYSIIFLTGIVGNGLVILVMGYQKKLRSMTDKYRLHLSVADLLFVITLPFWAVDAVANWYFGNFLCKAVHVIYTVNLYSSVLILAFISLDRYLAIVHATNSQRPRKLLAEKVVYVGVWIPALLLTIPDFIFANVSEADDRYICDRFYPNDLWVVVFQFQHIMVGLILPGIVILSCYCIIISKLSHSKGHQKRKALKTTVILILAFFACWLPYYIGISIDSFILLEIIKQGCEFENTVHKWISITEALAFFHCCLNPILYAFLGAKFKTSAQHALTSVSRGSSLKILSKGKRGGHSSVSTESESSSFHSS

B1: SDF-1(1-8)2-lysine bridge dimer (CTCE9904) (peptide)
peptide 1: KPVSLSYRK-NH2
peptide 2: KPVSLSYR
modifications: also: dimer: two KPVSLSYR chains bridged through alpha and epsilon amino groups of one lysinamide, lactam at chain A 9 at chain B 8 to a chain's C-terminus
notes: It is not known whether the bridging lysine is part of either listing entry; also called SDF-1 (1-8)2-lysine dimer
For B1, the binding result was “binds”.
